In publication PMC10230788:

Molecular target: glucagon receptor (rat ventricular myocardium) (rat (endogenous in Sprague-Dawley rat right ventricle)) (UniProt P30082)
Chain of UniProt P30082 (P30082 27-485): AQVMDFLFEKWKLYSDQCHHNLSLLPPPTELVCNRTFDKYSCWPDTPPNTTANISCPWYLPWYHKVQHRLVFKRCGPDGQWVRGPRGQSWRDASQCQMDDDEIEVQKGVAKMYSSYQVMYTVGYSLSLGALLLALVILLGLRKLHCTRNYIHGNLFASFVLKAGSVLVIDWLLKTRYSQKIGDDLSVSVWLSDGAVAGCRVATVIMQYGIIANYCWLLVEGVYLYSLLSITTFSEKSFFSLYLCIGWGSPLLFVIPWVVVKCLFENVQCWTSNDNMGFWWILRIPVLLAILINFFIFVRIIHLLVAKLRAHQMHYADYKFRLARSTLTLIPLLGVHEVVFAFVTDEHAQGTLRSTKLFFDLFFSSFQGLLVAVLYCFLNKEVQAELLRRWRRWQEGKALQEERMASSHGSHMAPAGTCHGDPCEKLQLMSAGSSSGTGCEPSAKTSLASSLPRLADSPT

Chain of glucagon (P01275 53-81): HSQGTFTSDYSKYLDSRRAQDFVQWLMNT

Emax of the inotropic response (percent increase in contractility over baseline) of rat right ventricle strips to glucagon (1–1000 nM), in the absence of IBMX: 40%
Emax of the inotropic response (percent increase in contractility over baseline) of rat right ventricle strips to glucagon (1–1000 nM), in the presence of 30 µM IBMX: 75%
–log EC50 of the positive inotropic response (contractility) of electrically driven rat right ventricle strips to glucagon (1–1000 nM), glucagon alone: 7.1 –log EC50
Substance: glucagon (from UniProt P01275 53-81) (ligand)
